Tests used:
[1] = molecular target: recombinant cynomolgus TIGIT (cynomolgus monkey); assay: ELISA on recombinant cyno-TIGIT
[2] = molecular target: recombinant human TIGIT extracellular domain (ECD) (human) (UniProt Q495A1); assay: ELISA on recombinant human TIGIT ECD
[3] = molecular target: human TIGIT (T cell immunoreceptor with Ig and ITIM domains), expressed on cells (human) (UniProt Q495A1); assay: cell-based or functional assay
[4] = molecular target: human TIGIT (T cell immunoreceptor with Ig and ITIM domains), expressed on cells (human) (UniProt Q495A1); assay: flow cytometry (CytoFlex), whole cell binding to cells expressing human TIGIT, MFI of AlexaFlour 488; one representative of three experiments
[5] = molecular target: human TIGIT (T cell immunoreceptor with Ig and ITIM domains), expressed on cells (human) (UniProt Q495A1); assay: whole cell binding assays, n=3 (FIG. 10A)

Sequence of human TIGIT (T cell immunoreceptor with Ig and ITIM domains), expressed on cells (human) (Q495A1 22-244 limits assumed): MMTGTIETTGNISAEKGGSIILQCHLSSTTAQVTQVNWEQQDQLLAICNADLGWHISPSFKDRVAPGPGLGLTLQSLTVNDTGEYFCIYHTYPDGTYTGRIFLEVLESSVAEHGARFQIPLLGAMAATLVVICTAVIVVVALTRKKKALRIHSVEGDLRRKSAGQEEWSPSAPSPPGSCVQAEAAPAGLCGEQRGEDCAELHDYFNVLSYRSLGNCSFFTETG
Sequence of recombinant human TIGIT extracellular domain (ECD) (human) (Q495A1 22-138 limits assumed): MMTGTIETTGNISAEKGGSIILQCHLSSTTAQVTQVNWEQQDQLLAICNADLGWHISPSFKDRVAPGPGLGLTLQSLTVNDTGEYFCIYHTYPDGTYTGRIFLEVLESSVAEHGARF

For “Reference Ab 2 (same amino acid sequences as Tiragolumab, U.S. 2017/0088613 A1) (antibody)”, the EC50 (read off the curve) [1] was 0.1 µg/mL, the EC50 (read off the curve) [2] was 0.1 µg/mL and the EC50, NFAT luciferase reporter assay (n=3) [3] was 0.72 nM. It also gave an EC50 (read off the curve) [4] of 0.5 nM and an EC50 [5] of 0.61 nM.

Source: patent US20230134580A1
